Tests used:
[1] = Enzyme test of purification fractions with L-ala (o-dianisidine/POX, 450 nm); type: biochemical, Rhodococcus opacus; details: 0.2 M TEA-HCl, pH 7.6, 10 mM L-ala, 30° C.
Procedure: The cells were digested by means of wet grinding with glass beads. For this purpose, the moist bacteria mass (15 g) was suspended in 50 mM TEA-HCl buffer (pH 7.0), so that the concentration of the moist cell mass was 25%. The cell content substances were released from the ice-cooled suspension by means of mechanical digestion using a glass bead mill (SCP disintegrator, Innomed-Konsult AB, Sweden). For this purpose, the grinding container was filled with 100 mL glass beads (diameter 0.3 mm) and the cell suspension. Digestion was carried out at a stirring shaft speed of 3,000 rpm. The cooling mantle was filled with ice water before the start of the run.
15 g moist bacteria mass yielded 45 mL crude extract with a volume activity of 0.035 U/mL and a protein content of 9.4 mg/mL. From this, it can be calculated that approximately 150 units L-amino acid oxidase can be obtained from 10 L fermenter batch.
The enzyme can be purified by means of ion exchange chromatography, hydrophobic interaction chromatography, and chromatography with hydroxyl apatite as the column material. The crude extract was pumped onto a column (h 5.5×diameter 5 cm) packed with MarcoPrep High Q Support Material (Biorad, Hercules, USA), at a flow velocity of 0.2 mnL/min. The ion exchanger had previously been equilibrated with a buffer, which contained 50 mM TEA-HCl, pH 7.0. […]

[2] = Determination of the isoelectric point by isoelectric focusing; type: physicochemical, Rhodococcus opacus; details: carrier ampholytes on agarose, pH range 4-6
Procedure: The isoelectric point of the L-amino acid oxidase was determined using isoelectric focusing with carrier ampholytes on agarose, in a pH range of 4-6. The pI is at pH 4.8. Carboanhydrase, β-lactoglobulin, trypsin inhibitor, glucose oxidase were used as marker proteins.

[3] = pH dependence of the oxidation process; type: biochemical, Rhodococcus opacus; details: 80 mM TEA-HCl buffer; for L-alanine, L-phenylalanine and L-leucine
Procedure: The reaction speed of the oxidation of L-amino acids to keto acids in the presence of the L-amino acid oxidase was studied as a function of the pH in the reaction solution. The test batch (200 μL) had the following composition: 10 mM L-amino acid, 25 U/mL peroxidase from horseradish, 80 mM buffer with different pH values and compositions, 0.2 mg/mL o-dianisidine, enzyme in limiting amount.

[4] = Storage stability of the L-amino acid oxidase at 4° C.; type: physicochemical, Rhodococcus opacus; details: several months; 0.7 mg/mL protein; 50 mM glycine NaOH buffer, pH 8.6; sterile conditions
[5] = Storage stability of the L-amino acid oxidase as a function of the pH; type: physicochemical, Rhodococcus opacus; details: after 100 hours in glycine NaOH buffer at pH 10 and 10.5; room temperature; 24 μg/mL protein
Procedure: c) Storage Stability of the L-amino Acid Oxidase as a Function of the pH L-amino acid oxidase was incubated in 0.2 M buffer of different compositions, at a protein concentration of 24, μg/mL, at room temperature. Afterwards, the residual activity was determined using 0.2 M TEA buffer, pH 7.6, and 10 mM L-ala. […] After 100 hours in glycine NaOH buffer, it was still possible to detect more than 90% activity at pH 10 and 10.5.

B1: L-amino acid oxidase: L-amino acid oxidase (L-AAO) from Rhodococcus opacus DSM 43250, SEQ ID NO: 2, homogeneously purified (protein, listed as Rhodococcus opacus)
chain: AGDLIGKVKGSHSVVVLGGGPAGLCSAFELQKAGYKVTVLEARTRPGGRVWTARGGSEETDLSGETQKCTFSEGHFYNVGATRIPQSHITLDYCRELGVEIQGFGNQNANTFVNYQSDTSLSGQSVTYRAAKADTFGYMSELLKKATDQGALDQVLSREDKDALSEFLSDFGDLSDDGRYLGSSRRGYDSEPGAGLNFGTEKKPFAMQEVIRSGIGRNFSFDFGYDQAMMMFTPVGGMDRIYYAFQDRIGTDNIVFGAEVTSMKNVSEGVTVEYTAGGSKKSITADYAICTIPPHLVGRLQNNLPGDVLTALKAAKPSSSGKLGIEYSRRWWETEDRIYGGASNTDKDISQIMFPYDHYNSDRGVVVAYYSSGKRQEAFESLTHRQRLAKAIAEGSEIHGEKYTRDISSSFSGSWRRTKYSESAWANWAGSGGSHGGAATPEYEKLLEPVDKIYFAGDHLSNAIAWQHGALTSARDVVTHIHERVAQEA
Spec. act. (U/mg) [1]: 4.6 U/mg
Spec. act. (U/mg) ([1]; listed as Hydroxyl apatite pool): 4.61 U/mg
isoelectric point (pI) [2]: 4.8
pH optimum [3]: 8.5
storage stability at 4° C. [4]: without any loss of activity
residual activity [5]: more than 90%

Source: patent US6461841B2, “L-amino acid oxidase from Rhodococcus species” (Degussa AG, priority 2000, dated 2002)
